Laboratory results as given in publication PMC5817196, “DprA from Neisseria meningitidis: properties and role in natural competence for transformation” (Microbiology, 2017).

B3: DNA processing chain A from Neisseria meningitidis MC58 (DprANm), recombinant, N-terminal 6xHis-tag (natural protein, UniProt Q9K1K1 1-397, looked up)
chain: MTEDERFAWLQLAFTPYIGAESFLLLMRRFGSAQNALSAPAEQVAALIRHKQALEAWRNAEKRALARQAAEAALEWEMRDGCRLMLLQDEDFPEMLTQGLTAPPVLFLRGNVQLLHKPSAAIVGSRHATPQAMRIAKDFGKSLGGKGIPVVSGMASGIDTAAHQGALQAEGGTIAVWGTGIDRIYPPVNKNLAYEIAEKGLIVSEFPIGTRPYAGNFPRRNRLIAALSQVTLVVEAALESGSLITARLAAEMGREVMAVPGSIDNPHSKGCHKLIKDGAKLVECLDDILNECPGLLQNTGASSYSINKGIPEKRITAVQTASDQLSLPEGKMPSEKTENRPVGGSILDRMGFDPVHPDVLAGQLAMPAADLYAALLELELDGSVAAMPGGRYQRIRT
notes: DprA (DNA processing chain A) of Neisseria meningitidis strain MC58, locus NMB0116; the dprA gene was amplified with primers EH041 and EH042 and inserted into pET28b(+); Theoretical size of the dimer is printed as 89.6 kDa; also called Nm DprA; source: E. coli ER2566 carrying pMGM1 (pET28b(+)), purified (Ni-NTA, dialysed)

Legend:
DprA (DprANm) [1] = target: T1, DprA (DprANm) (Neisseria meningitidis MC58, UniProt Q9K1K1 1-397); assay: EMSA; 20-40 nM DprA; affinity similar to C80; EMSA: 40 mM Tris-HCl pH 8, 2.5 mM EDTA, 2 mM MgCl2, 100 mg/ml BSA (so in the source), 6% glycerol, 1 mM DTT; 30 min on ice; 5% native PAGE at 4 °C; details: protein: recombinant; tags: N-terminal 6xHis (pET28b, cleavable); chain copies: 2; label: 32P end label
T1 sequence: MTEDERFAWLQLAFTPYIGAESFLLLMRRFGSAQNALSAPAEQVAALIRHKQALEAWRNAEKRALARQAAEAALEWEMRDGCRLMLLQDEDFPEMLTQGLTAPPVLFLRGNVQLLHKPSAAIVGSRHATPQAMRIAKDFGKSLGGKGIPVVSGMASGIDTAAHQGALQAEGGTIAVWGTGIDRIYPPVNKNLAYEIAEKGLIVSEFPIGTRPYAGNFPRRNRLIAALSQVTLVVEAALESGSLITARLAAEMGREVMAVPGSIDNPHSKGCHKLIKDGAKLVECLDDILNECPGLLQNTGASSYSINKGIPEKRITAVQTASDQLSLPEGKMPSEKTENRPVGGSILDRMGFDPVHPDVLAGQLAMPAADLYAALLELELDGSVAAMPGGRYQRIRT

DprA (DprANm) [2] = target: T1, DprA (DprANm); assay: EMSA; 0.5-80 nM DprA; stronger than dsDNA G80C80 (P=0.034); EMSA: 40 mM Tris-HCl pH 8, 2.5 mM EDTA, 2 mM MgCl2, 100 mg/ml BSA (so in the source), 6% glycerol, 1 mM DTT; 30 min on ice; 5% native PAGE at 4 °C; details: protein: recombinant; tags: N-terminal 6xHis (pET28b, cleavable); chain copies: 2; label: 32P end label
[3] = target: the molecule itself; assay: SEC-MALS; Superdex 200 10/300 GL with Malvern Viscotek UV, RI and static light-scattering detectors; calibrated with BSA; conditions similar to the co-size-exclusion assay; size from the main eluting peak
DprA (DprANm) [4] = target: T1, DprA (DprANm); assay: EMSA; 30 nM DprA; complex dissociates easily during electrophoresis; EMSA: 40 mM Tris-HCl pH 8, 2.5 mM EDTA, 2 mM MgCl2, 100 mg/ml BSA (so in the source), 6% glycerol, 1 mM DTT; 30 min on ice; 5% native PAGE at 4 °C; details: protein: recombinant; tags: N-terminal 6xHis (pET28b, cleavable); chain copies: 2; label: 32P
[5] = target: B3; assay: MST; RED-NHS-labelled SSBNm (23.6 nM) or SSBNmΔ8C (25.6 nM), DprANm titrated; 20 mM HEPES pH 7.5, 300 mM NaCl, 0.05 % Tween 20, 0.1 % Pluronic F-127, 0.1 % PEG 8000, 2 mM DTT; 22 °C, 20 % MST power, Monolith NT.115; details: both partners purified
DprA (DprANm) [6] = target: T1, DprA (DprANm); assay: EMSA; 30 nM DprA; very stable complex; EMSA: 40 mM Tris-HCl pH 8, 2.5 mM EDTA, 2 mM MgCl2, 100 mg/ml BSA (so in the source), 6% glycerol, 1 mM DTT; 30 min on ice; 5% native PAGE at 4 °C; details: protein: recombinant; tags: N-terminal 6xHis (pET28b, cleavable); chain copies: 2; label: 32P

B1: GTB25 (ssDNA)
DNA: GCCGTCTGAAAGCTCTAGGCCGTCTGAAACGTCAGGCCGTCTGAAAGCTCTAGGCCGTCTGAAACGTCAGGCCGTCTGAA
B1: binds (DprA (DprANm) [1]).

B2: C80 (ssDNA)
DNA: GCTGATCAACCCTACATGTGTAGGTAACCCTAACCCTAACCCTAAGGACAACCCTAGTGAAGCTTGTAACCCTAGGAGCT
B2: binds (DprA (DprANm) [2]).

For B3, the “stoichiometry N” value [3] was 2.

TTTTTTTTTTTTTTTTTTTTTTTTTTTTTTTTTTTTTTTT (ssDNA) [dT40]: binds (DprA (DprANm) [4]).

B4: single-stranded binding protein of Neisseria meningitidis (SSBNm), recombinant (natural protein, UniProt P66848 1-174, looked up)
chain: MSLNKVILIGRLGRDPEVRYMPNGEAVCNFSVATSETWNDRNGQRVERTEWHNITMYRKLAEIAGQYLKKGGLVYLEGRIQSRKYQGKDGIERTAYDIVANEMKMLGGRNENSGGAPYEEGYGQSQEAYQRPAQQSRQPASDAPSHPQEAPAAPRRQPVPAAAPVEDIDDDIPF
modifications: RED-NHS dye (Monolith NT Protein Labeling kit RED-NHS), degree of labelling 0.3 to 0.6, in the MST experiment only
notes: Theoretical size of the tetramer is printed as 83.4 kDa
For B4, the “stoichiometry N” value [3] was 4 and the Kd [5] was 1460 ± 544 nM.

B5: dT80 (ssDNA)
DNA: TTTTTTTTTTTTTTTTTTTTTTTTTTTTTTTTTTTTTTTTTTTTTTTTTTTTTTTTTTTTTTTTTTTTTTTTTTTTTTTT
B5: binds (DprA (DprANm) [6]).
